B1: WEE1 (parent)
chain: FISRTSIPNAASEEGDEDDWASNK

Variants of: B1
Test: protein stability index of a GFP-peptide fusion (GPS, HEK-293T) (PSI 1-6); higher = more stable
Conditions: c terminus: a fixed tail appended
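Also: lentivirally expressed fusions sorted by FACS into six bins by GFP to DsRed ratio, PSI derived from sequencing read proportions per bin multiplied by bin number.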

Protein stability index of substitutions, site by site:
E13: A 3.85, P 4.43, W 3.54, S 3.9, T 3.55, Q 3.81, D 3.68, G 3.78, F 3.65, I 3.03, Y 3.46, V 3.29, L 3.5, H 3.67, C 3.62, M 3.64, K 3.5, R 4.15, N 3.51
A10: T 3.89, F 3.24, N 3.86, V 3.57, P 4.21, I 3.56, K 3.65, H 4.06, Y 3.17, E 4.35, C 3.67, S 4.34, G 4.13, W 2.15, R 3.97, M 3.54, D 3.15, L 3.93, Q 4.16
R4: K 3.86, Y 4.1, M 4.25, I 3.85, P 3.68, V 4.39, T 4.94, L 4.05, N 4.64, S 4.2, W 3.67, Q 4.6
A21: T 4.59, H 4.09, E 4.5, G 4.63, P 3.7, D 4.77, M 3.77, K 4.21, V 3.81, F 3.72, N 3.76, W 3.53, Q 3.62, R 4.39, I 3.83, C 4.1, S 4.1, L 3.29
W20: N 4.51, K 3.42, C 4.75, E 4.75, M 4.44, S 4.93, L 4.23, D 4.92, H 4.44, F 4.81, V 4.81, I 4.21, Q 4.7, T 4.46, A 4.79, G 4.52, P 4.57, Y 4.23, R 4.46
G15: W 3.27, D 4.12, K 4.18, V 4.46, F 3.83, C 4.51, I 4.29, M 3.72, H 3.91, Q 3.78, L 3.74, R 3.26, E 4.62, P 3.79, A 4.17, Y 4.13, N 3.78, S 4.42, T 4.17
N9: E 4.64, I 3.77, G 4.38, W 2.46, P 3.91, Y 2.35, F 2.87, S 3.84, H 3.93, D 4.34, V 3.93, M 3.25, R 3.35, Q 4.28, T 4.21, A 3.66, L 3.79, C 3.44, K 4.13
D18: P 3.6, H 2.23, L 3.16, T 3.5, I 3.53, F 2.5, S 3.46, W 2.54, R 3.81, M 3.03, E 4.22, Y 2.5, Q 3.56, N 3.27, V 3.35, K 3.76, G 3.55, C 3.28, A 3.62
P8: T 4.1, L 2.92, N 4.31, Y 2.16, E 3.82, R 3.69, F 3.19, Q 3.96, M 3.51, S 4.05, K 4.12, G 2.17, H 3.41, A 3.93, D 4.68, V 3.48, W 2.01, C 3.18, I 3.82
A11: G 4.23, L 4.13, M 3.95, P 3.95

Reference: the supplement of paper PMC10567573
